Patent US20240350682A1 (FUSION PHARMACEUTICALS, published 2024)

Tests used:
[1] = biological target: T1, six-transmembrane epithelial antigen of prostate-2 (STEAP2) (human, UniProt Q8NFT2 1-490); experiment: cell binding on LNCaP cells
T1 construct: Endogenous STEAP2 on prostate cancer cell lines (LNCaP, C4-2, 22RV1); also called STEAP2 receptor
T1 sequence: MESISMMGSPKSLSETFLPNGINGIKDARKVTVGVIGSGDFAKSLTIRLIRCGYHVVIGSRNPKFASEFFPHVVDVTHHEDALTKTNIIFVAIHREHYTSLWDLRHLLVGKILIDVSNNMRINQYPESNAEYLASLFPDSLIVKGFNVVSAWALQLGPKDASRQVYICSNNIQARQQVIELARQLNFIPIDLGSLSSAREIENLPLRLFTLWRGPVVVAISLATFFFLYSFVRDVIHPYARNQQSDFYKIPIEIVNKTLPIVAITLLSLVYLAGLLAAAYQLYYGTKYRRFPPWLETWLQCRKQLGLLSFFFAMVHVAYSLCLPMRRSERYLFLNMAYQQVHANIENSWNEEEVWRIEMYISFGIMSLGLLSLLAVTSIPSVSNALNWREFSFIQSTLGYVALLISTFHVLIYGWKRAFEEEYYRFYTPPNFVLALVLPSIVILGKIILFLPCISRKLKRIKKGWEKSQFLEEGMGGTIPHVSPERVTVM

[2] = biological target: T1, six-transmembrane epithelial antigen of …; experiment: cell-based binding on LNCaP cells
[3] = biological target: T1, six-transmembrane epithelial antigen of …; experiment: saturation radioligand binding on C4-2 cells (4 °C); specific = total minus nonspecific binding in the presence of excess unlabeled antibody; single-site fit
Description: (§1) The purpose of this assay was to ensure that the radioimmunoconjugates maintained the binding characteristics of the native antibody in STEAP2 expressing cell lines including C4-2, 22RV1 and LNCaP. One day prior to the experiment, cells (1.5-2×10⁵) were seeded in 48-well microplates in 500 μL supplemented medium. At the start of the assay, cells were washed with PBS once and then treated with either Binding Buffer or 5 μM cold antibody [total binding (TB) and non-specific binding (NSB) respectively]. Plates were incubated at 4° C. for about one hour with mild shaking. Following incubation, both […] and NSB cells were treated with increasing concentrations of [¹⁷⁷Lu]-STEAP2 (40A3-LO11) or [¹⁷⁷Lu]-STEAP2 (40A3-LO14) (0.098 nM to 50 nM) and were incubated at 4° C. for about two hours with mild shaking.
(§2) Following incubation, the cells were washed twice with PBS and were then lysed with 1% Triton-X-100. The lysates were transferred to gamma counting tubes and run along with the standard of [¹⁷⁷Lu]-STEAP2 (40A3-LO11) or [¹⁷⁷Lu]-STEAP2 (40A3-LO14) on the Wizard 1470 gamma counter to determine the amount of radioactivity in counts per minute (CPM) for each lysate. The remaining lysate from each well (25 μL) was used for analyzing the protein content using a standard protein quantification assay.

[4] = biological target: T1, six-transmembrane epithelial antigen of …; experiment: saturation radioligand binding on 22RV1 cells (4 °C); specific = total minus nonspecific binding in the presence of excess unlabeled antibody; single-site fit
Description: as §1, §2

[5] = biological target: T1, six-transmembrane epithelial antigen of …; experiment: radioligand saturation binding on C4-2 cells, single-site fit of specific binding
Description: as §1, §2

[6] = biological target: T1, six-transmembrane epithelial antigen of …; experiment: radioligand saturation binding on 22RV1 cells, single-site fit of specific binding
Description: as §1, §2

[7] = biological target: T1, six-transmembrane epithelial antigen of …; experiment: radioligand saturation binding on LNCaP cells, single-site fit of specific binding
Description: as §1, §2

[8] = biological target: T1, six-transmembrane epithelial antigen of …; experiment: saturation radioligand binding on LNCaP cells (4 °C); specific = total minus nonspecific binding in the presence of excess unlabeled antibody; single-site fit
Description: as §1, §2

Row | Binder | EC50 [1] [nM] | fold improvement in binding relative to 40A3-LO7 [2] [fold] | Kd [3] [nM] | Kd [4] [nM] | Kd [5] [nM] | Kd [6] [nM] | Kd [7] [nM] | Kd [8] [nM]
1 | 40A3-LO14 (IgG1-TM) (antibody, V domains shown, Human IgG1 kappa with reduced effector function (IgG1-TM); also called 40A3GL-LO14; 40A3-LO14 hIgG-TM) VH: QVQLQQSGPGLVKPSQTLSLTCAISGDSVSRNSAVWNWIRQSPSRGLEWLGRTYYRSKWYNDYAPSVKSRITINPDTSKNQFSLQLNSVTPEDTAVYYCARGLRQNQFYYYMDVWGKGTTVTVSS VL: not shown | 1.67 | 26 | – | – | – | – | – | –
2 | [177Lu]-STEAP2 (40A3-LO14) (antibody, human IgG1, kappa, V domains shown, 177Lu complex of the DOTA chelate of Compound C (PEG3 linker) conjugated to the antibody through its tetrafluorophenyl ester; sites and chain not stated; typical chelate to antibody ratios 5-5.5, also called [177Lu]-Compound C-anti-STEAP2 conjugate; [177Lu]-DOTA-anti-STEAP2 conjugate) VH: QVQLQQSGPGLVKPSQTLSLTCAISGDSVSRNSAVWNWIRQSPSRGLEWLGRTYYRSKWYNDYAPSVKSRITINPDTSKNQFSLQLNSVTPEDTAVYYCARGLRQNQFYYYMDVWGKGTTVTVSS VL: not shown | – | – | 2.82 | 3.26 | ~2.8 | ~3.2 | ~0.79 | –

Further lines, results first:

Row | EC50 [1] [nM] | fold improvement in binding relative to 40A3-LO7 [2] [fold] | Kd [3] [nM] | Kd [4] [nM] | Kd [5] [nM] | Kd [6] [nM] | Kd [7] [nM] | Kd [8] [nM] | Binder
3 | 2.38 | – | – | – | – | – | – | – | 40A3-LO11 (IgG1-TM) (antibody, V domains shown) VH: QVQLQQSGPGLVKPSQTLSLTCAISGDSVSRNSAVWNWIRQSPSRGLEWLGRTYYRSKWYNDYAPSVKSRITINPDTSKNQFSLQLNSVTPEDTAVYYCARGLLQNQFYYYMDVWGKGTTVTVSS VL: not shown
4 | – | – | 6.58 | 6.77 | ~6.9 | ~6.7 | ~1.2 | 1.24 | [177Lu]-STEAP2 (40A3-LO11) (antibody, human IgG1, kappa, V domains shown, 177Lu complex of the DOTA chelate of Compound C (PEG3 linker) conjugated to the antibody; sites, chain and ratio not stated for this antibody, Radioimmunoconjugate of 40A3-LO11; also called [177Lu]-Compound C-anti-STEAP2 conjugate) VH: QVQLQQSGPGLVKPSQTLSLTCAISGDSVSRNSAVWNWIRQSPSRGLEWLGRTYYRSKWYNDYAPSVKSRITINPDTSKNQFSLQLNSVTPEDTAVYYCARGLLQNQFYYYMDVWGKGTTVTVSS VL: not shown
